B1: ATG9A (mouse, endogenous in BMDMs) (other, UniProt Q68FE2 2-839, looked up)
chain: AQFDTEYQRLEASYSDSPPGEEDLLVHVAEGSKSPWHHIENLDLFFSRVYNLHQKNGFTCMLIGEMFELMQFLFVVAFTTFLVSCVDYDILFANKMVNHSLHPTEPVKVTLPDAFLPAQVCSARIQENGSLITILVIAGVFWIHRLIKFIYNICCYWEIHSFYLHALRIPMSALPYCTWQEVQARIVQTQKEHQICIHKRELTELDIYHRILRFQNYMVALVNKSLLPLRFRLPGLGEVVFFTRGLKYNFELILFWGPGSLFLNEWSLKAEYKRGGQRLELAQRLSNRILWIGIANFLLCPLILIWQILYAFFSYAEVLKREPGALGARCWSLYGRCYLRHFNELEHELQSRLNRGYKPASKYMNCFLSPLLTLLAKNGAFFAGSILAVLIALTIYDEDVLAVEHVLTTVTLLGVTVTVCRSFIPDQHMVFCPEQLLRVILAHIHYMPDHWQGNAHRSQTRDEFAQLFQYKAVFILEELLSPIVTPLILIFCLRPRALEIIDFFRNFTVEVVGVGDTCSFAQMDVRQHGHPQWLSGGQTEASVYQQAEDGKTELSLMHFAITNPGWQPPRESTAFLGFLKEQVQRDGAAAGLAQGGLLPENALFTSIQSLQSESEPLSLIANVVAGSSCRGPSLSRDLQGSRHRADVASALRSFSPLQPGAAPQGRVPSTMTGSGVDARTASSGSSVWEGQLQSLVLSEYASTEMSLHALYMHQLHKQQTQAEPERHVWHRRESDESGESAPEEGGEGARAPQPIPRSASYPCATPRPGAPETTALHGGFQRRYGGITDPGTVPRGPSHFSRLPLGGWAEDGQPASRHPEPVPEEGSEDELPPQVHKV
notes: Endogenous protein in mouse BMDM lysates

Tests used:
[1] = target: NLRP3 (mouse, endogenous in BMDMs) (mouse, UniProt Q8R4B8 1-1033); experiment: endogenous co-IP; WT and Becn2 KO BMDM lysates (untreated or LPS 3 h) immunoprecipitated with ATG9A antibodies, immunoblot (FIG. 30F)
[2] = target: B1; experiment: as above
[3] = target: T1, Beclin 2 (human, full length) (human, UniProt A8MW95 1-431); experiment: co-IP with anti-Flag beads and immunoblot; HEK293T cells co-transfected with HA-Beclin 2 and a Flag-tagged plasmid (FIG. 25A)
T1 construct: All tagged and endogenous human forms are kept under this one id; the form used is named under assay; also called BECN2; Flag-Beclin 2
T1 sequence: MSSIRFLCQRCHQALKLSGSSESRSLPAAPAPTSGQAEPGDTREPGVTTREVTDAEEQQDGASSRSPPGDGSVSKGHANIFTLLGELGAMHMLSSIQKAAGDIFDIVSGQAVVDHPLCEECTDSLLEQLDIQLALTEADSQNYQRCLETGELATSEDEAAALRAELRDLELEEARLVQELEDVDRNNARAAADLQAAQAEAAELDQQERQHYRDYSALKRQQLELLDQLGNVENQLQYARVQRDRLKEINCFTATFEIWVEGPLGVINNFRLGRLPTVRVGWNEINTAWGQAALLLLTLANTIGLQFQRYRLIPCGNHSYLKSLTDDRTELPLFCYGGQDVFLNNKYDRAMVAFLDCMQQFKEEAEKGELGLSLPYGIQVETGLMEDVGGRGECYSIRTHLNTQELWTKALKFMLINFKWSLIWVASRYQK

[4] = target: T2, ATG9A (human) (human, UniProt Q7Z3C6 1-839); experiment: co-IP with anti-Flag beads; WT, BECN2 KO and ULK1 KO HEK293T cells co-transfected with HA-ATG9A and Flag-AIM2 (FIG. 30D)
T2 construct: Transmembrane protein; co-IP from RIPA lysates; Tagged and endogenous human forms kept under one id; also called Flag-ATG9A; HA-ATG9A
T2 sequence (looked up): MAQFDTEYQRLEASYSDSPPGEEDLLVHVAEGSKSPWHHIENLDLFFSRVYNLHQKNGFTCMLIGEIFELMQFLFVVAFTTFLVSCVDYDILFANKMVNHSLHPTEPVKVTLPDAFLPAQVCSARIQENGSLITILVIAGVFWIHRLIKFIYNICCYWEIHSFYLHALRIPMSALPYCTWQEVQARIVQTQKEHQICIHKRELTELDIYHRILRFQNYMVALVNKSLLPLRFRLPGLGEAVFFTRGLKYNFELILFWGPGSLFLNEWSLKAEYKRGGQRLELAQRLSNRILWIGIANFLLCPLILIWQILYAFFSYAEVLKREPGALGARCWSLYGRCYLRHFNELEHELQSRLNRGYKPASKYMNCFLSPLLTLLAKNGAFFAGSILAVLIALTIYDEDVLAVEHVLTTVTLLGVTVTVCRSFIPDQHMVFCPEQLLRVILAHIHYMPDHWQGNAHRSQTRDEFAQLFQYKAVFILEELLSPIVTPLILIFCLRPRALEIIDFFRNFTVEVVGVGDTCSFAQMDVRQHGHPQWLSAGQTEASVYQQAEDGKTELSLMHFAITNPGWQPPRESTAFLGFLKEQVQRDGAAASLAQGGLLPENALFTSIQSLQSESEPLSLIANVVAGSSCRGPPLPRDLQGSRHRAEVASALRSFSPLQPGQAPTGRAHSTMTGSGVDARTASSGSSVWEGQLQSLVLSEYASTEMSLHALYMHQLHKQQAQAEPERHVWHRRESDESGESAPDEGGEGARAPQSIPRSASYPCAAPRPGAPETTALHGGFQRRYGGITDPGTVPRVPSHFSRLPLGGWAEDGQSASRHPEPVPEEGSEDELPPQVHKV

[5] = target: B1; experiment: endogenous co-IP; BMDM lysates (untreated or LPS) immunoprecipitated with MEKK3 antibodies, immunoblot (FIG. 12D)
[6] = target: T1, Beclin 2 (human, full length); experiment: co-IP with anti-Flag beads and immunoblot; HEK293T cells co-transfected with HA-Beclin 2 and Flag-tagged SNARE or RAB proteins (FIG. 32A)
[7] = target: T2, ATG9A (human); experiment: endogenous co-IP; WT and BECN2 KO THP-1 cell lysates immunoprecipitated with ATG9A antibodies, immunoblot (FIG. 32D)

NLRP3 (mouse, endogenous in BMDMs), sequence (Q8R4B8 whole entry): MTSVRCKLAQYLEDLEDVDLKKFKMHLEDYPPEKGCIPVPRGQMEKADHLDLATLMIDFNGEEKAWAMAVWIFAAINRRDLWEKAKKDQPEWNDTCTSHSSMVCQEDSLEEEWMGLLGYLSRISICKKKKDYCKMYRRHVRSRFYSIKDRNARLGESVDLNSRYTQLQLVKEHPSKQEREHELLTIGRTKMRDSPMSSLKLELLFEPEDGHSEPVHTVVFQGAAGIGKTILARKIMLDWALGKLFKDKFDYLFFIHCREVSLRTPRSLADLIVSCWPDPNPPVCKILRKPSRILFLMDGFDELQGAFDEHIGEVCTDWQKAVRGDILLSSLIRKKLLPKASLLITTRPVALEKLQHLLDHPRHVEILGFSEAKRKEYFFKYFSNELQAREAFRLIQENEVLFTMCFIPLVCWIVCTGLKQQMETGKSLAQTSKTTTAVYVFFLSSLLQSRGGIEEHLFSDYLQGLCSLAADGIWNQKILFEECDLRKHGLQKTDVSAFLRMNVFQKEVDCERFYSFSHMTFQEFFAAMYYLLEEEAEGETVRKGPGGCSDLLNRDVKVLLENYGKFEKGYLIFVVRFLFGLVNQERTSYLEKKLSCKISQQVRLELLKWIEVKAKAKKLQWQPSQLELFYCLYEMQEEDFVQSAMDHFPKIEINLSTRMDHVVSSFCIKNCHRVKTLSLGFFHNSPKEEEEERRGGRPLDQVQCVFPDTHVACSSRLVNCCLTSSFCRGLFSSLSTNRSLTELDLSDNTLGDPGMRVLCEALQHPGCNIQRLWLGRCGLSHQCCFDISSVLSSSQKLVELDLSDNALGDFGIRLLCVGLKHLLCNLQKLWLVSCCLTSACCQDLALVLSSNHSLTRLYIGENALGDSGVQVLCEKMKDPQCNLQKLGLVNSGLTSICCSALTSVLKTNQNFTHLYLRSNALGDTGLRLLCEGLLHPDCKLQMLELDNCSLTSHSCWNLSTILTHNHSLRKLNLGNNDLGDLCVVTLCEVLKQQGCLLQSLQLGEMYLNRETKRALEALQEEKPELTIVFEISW

Question: Does B1 bind [1]?
Answer: binds

B2: AIM2 (mouse, endogenous in BMDMs) (other, UniProt Q91VJ1 1-354, looked up)
chain: MESEYREMLLLTGLDHITEEELKRFKYFALTEFQIARSTLDVADRTELADHLIQSAGAASAVTKAINIFQKLNYMHIANALEEKKKEAERKLMTNTKKRGTQKVENRSQAENCSAASATRSDNDFKEQAATEVCPQAKPQKKQMVAEQEAIREDLQKDPLVVTVLKAINPFECETQEGRQEIFHATVATETDFFFVKVLNAQFKDKFIPKRTIKISNYLWHSNFMEVTSSSVVVDVESNHEVPNNVVKRARETPRISKLKIQPCGTIVNGLFKVQKITEEKDRVLYGIHDKTGTMEVLVLGNPSKTKCEEGDKIRLTFFEVSKNGVKIQLKSGPCSFFKVIKAAKPKTDMKSVE
Question: Does B2 bind [2]?
Answer: binds

B3: caspase 1 (enzyme, human, UniProt P29466 1-404, looked up)
chain: MADKVLKEKRKLFIRSMGEGTINGLLDELLQTRVLNKEEMEKVKRENATVMDKTRALIDSVIPKGAQACQICITYICEEDSYLAGTLGLSADQTSGNYLNMQDSQGVLSSFPAPQAVQDNPAMPTSSGSEGNVKLCSLEEAQRIWKQKSAEIYPIMDKSSRTRLALIICNEEFDSIPRRTGAEVDITGMTMLLQNLGYSVDVKKNLTASDMTTELEAFAHRPEHKTSDSTFLVFMSHGIREGICGKKHSEQVPDILQLNAIFNMLNTKNCPSLKDKPKVIIIQACRGDSPGVVWFKDSVGVSGNLSLPTTEEFEDDAIKKAHIEKDFIAFCSSTPDNVSWRHPTMGSVFIGRLIEHMQEYACSCDVEEIFRKVRFSFEQPDGRAQMPTTERVTLTRCFYLFPGH
notes: also called Flag-caspase 1
Question: Does B3 bind [3]?
Answer: binds

B4: AIM2 (human, full length) (other, UniProt O14862 1-343, looked up)
chain: MESKYKEILLLTGLDNITDEELDRFKFFLSDEFNIATGKLHTANRIQVATLMIQNAGAVSAVMKTIRIFQKLNYMLLAKRLQEEKEKVDKQYKSVTKPKPLSQAEMSPAASAAIRNDVAKQRAAPKVSPHVKPEQKQMVAQQESIREGFQKRCLPVMVLKAKKPFTFETQEGKQEMFHATVATEKEFFFVKVFNTLLKDKFIPKRIIIIARYYRHSGFLEVNSASRVLDAESDQKVNVPLNIIRKAGETPKINTLQTQPLGTIVNGLFVVQKVTEKKKNILFDLSDNTGKMEVLGVRNEDTMKCKEGDKVRLTFFTLSKNGEKLQLTSGVHSTIKVIKAKKKT
notes: also called Flag-AIM2; GFP-AIM2
Question: Does B4 bind [4]?
Answer: binds

B5: MEKK3 (mouse, endogenous in BMDMs) (enzyme, UniProt Q61084 1-626, looked up)
chain: MDEQEALDSIMKDLVALQMSRRTRLSGYETMKNKDTGHPNRQSDVRIKFEHNGERRIIAFSRPVRYEDVEHKVTTVFGQPLDLHYMNNELSILLKNQDDLDKAIDILDRSSSMKSLRILLLSQDRNHTSSSPHSGVSRQVRIKPSQSAGDINTIYQAPEPRSRHLSVSSQNPGRSSPPPGYVPERQQHIARQGSYTSINSEGEFIPETSEQCMLDPLSSAENSLSGSCQSLDRSADSPSFRKSQMSRARSFPDNRKECSDRETQLYDKGVKGGTYPRRYHVSVHHKDYNDGRRTFPRIRRHQGNLFTLVPSSRSLSTNGENMGVAVQYLDPRGRLRSADSENALTVQERNVPTKSPSAPINWRRGKLLGQGAFGRVYLCYDVDTGRELASKQVQFDPDSPETSKEVSALECEIQLLKNLQHERIVQYYGCLRDRAEKILTIFMEYMPGGSVKDQLKAYGALTESVTRKYTRQILEGMSYLHSNMIVHRDIKGANILRDSAGNVKLGDFGASKRLQTICMSGTGIRSVTGTPYWMSPEVISGEGYGRKADVWSLGCTVVEMLTEKPPWAEYEAMAAIFKIATQPTNPQLPSHISEHGRDFLRRIFVEARQRPSAEELLTHHFAQLVY
notes: Endogenous protein in mouse BMDM lysates; also called Map3k3
Question: Does B5 bind [5]?
Answer: binds

B6: SEC22A (other, human, UniProt Q96IW7 1-307, looked up)
chain: MSMILSASVIRVRDGLPLSASTDYEQSTGMQECRKYFKMLSRKLAQLPDRCTLKTGHYNINFISSLGVSYMMLCTENYPNVLAFSFLDELQKEFITTYNMMKTNTAVRPYCFIEFDNFIQRTKQRYNNPRSLSTKINLSDMQTEIKLRPPYQISMCELGSANGVTSAFSVDCKGAGKISSAHQRLEPATLSGIVGFILSLLCGALNLIRGFHAIESLLQSDGDDFNYIIAFFLGTAACLYQCYLLVYYTGWRNVKSFLTFGLICLCNMYLYELRNLWQLFFHVTVGAFVTLQIWLRQAQGKAPDYDV
Question: Which results are given for B6?
Answer: binding result [6]: binds; binding result [7]: binds

From patent publication US20240025959A1 (UNIVERSITY OF SOUTHERN CALIFORNIA, published 2024)
